# Results: paper PMC10397247
# T1: 4H2253-AA
# T1 chain: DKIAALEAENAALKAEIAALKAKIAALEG
# T2: 4H2274-AA
# T2 chain: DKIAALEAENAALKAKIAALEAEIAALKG
# T3: 4H2330-AA
# T3 chain: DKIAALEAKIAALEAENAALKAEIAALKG
# T4: 4H2389-AA
# T4 chain: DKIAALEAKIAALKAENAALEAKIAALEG
# T5: 4H2438-AA
# T5 chain: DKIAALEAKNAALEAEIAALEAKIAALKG
# T6: 4H2473-AA
# T6 chain: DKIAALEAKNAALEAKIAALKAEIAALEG
# T7: 4H249-AA
# T7 chain: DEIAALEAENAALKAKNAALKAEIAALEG
# T8: 4H2698-AA
# T8 chain: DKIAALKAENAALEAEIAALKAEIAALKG
# T9: 4H2774-AA
# T9 chain: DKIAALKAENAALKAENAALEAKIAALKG
# T10: 4H2865-AA
# T10 chain: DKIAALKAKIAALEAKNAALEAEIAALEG
# T11: 4H3009-AA
# T11 chain: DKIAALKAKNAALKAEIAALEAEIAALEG
# T12: 4H310-AA
# T12 chain: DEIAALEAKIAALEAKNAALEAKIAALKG
# T13: 4H3120-AA
# T13 chain: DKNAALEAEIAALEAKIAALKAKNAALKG
# T14: 4H3130-AA
# T14 chain: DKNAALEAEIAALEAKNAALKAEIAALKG
# T15: 4H3165-AA
# T15 chain: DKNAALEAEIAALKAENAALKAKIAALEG
# T16: 4H3381-AA
# T16 chain: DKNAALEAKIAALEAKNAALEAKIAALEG
# T17: 4H3395-AA
# T17 chain: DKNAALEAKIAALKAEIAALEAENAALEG
# T18: 4H3410-AA
# T18 chain: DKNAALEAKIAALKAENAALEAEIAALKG
# T19: 4H3590-AA
# T19 chain: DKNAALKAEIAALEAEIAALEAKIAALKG
# T20: 4H3697-AA
# T20 chain: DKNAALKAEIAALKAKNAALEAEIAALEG
# T21: 4H3753-AA
# T21 chain: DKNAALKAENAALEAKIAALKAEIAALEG
# T22: 4H3865-AA
# T22 chain: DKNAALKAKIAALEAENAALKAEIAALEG
# T23: 4H458-AA
# T23 chain: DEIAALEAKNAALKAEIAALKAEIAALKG
# T24: 4H485-AA
# T24 chain: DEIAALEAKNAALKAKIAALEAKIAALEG
# T25: 4H536-AA
# T25 chain: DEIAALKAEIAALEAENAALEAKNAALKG
# T26: 4H570-AA
# T26 chain: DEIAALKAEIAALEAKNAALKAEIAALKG
# T27: 4H710-AA
# T27 chain: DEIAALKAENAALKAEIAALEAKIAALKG
# T28: 4H745-AA
# T28 chain: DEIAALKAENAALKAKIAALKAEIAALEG
# T29: 4H797-AA
# T29 chain: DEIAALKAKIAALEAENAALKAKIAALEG
# T30: 4H850-AA
# T30 chain: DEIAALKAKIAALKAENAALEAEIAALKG
# T31: 4H891-AA
# T31 chain: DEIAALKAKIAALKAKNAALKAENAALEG
# T32: 4H909-AA
# T32 chain: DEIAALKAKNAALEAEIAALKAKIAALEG
# T33: 4H930-AA
# T33 chain: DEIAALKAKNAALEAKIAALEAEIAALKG
# T34: 4H94-AA
# T34 chain: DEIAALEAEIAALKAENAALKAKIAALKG
# T35: 4H_APH
# T35 chain: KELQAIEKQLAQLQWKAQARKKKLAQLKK
# Biological target: T1, 4H2253-AA
# Experiment: two-hybrid library CCmax;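 note: natural log of median RNA to DNA barcode read ratio; higher means stronger binding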
# Conditions: not given
row,interaction score,Binder
1,2.28,DKIAALEAENAALKAEIAALKAKIAALEG [4H2253-AA]

# Biological target: T2, 4H2274-AA
# Experiment: two-hybrid library CCmax;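 note: natural log of median RNA to DNA barcode read ratio; higher means stronger binding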
# Conditions: mean of both orientations
row,interaction score,Binder
1,-0.65,DKIAALEAENAALKAEIAALKAKIAALEG [4H2253-AA]

# Biological target: T3, 4H2330-AA
# Experiment: two-hybrid library CCmax;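 note: natural log of median RNA to DNA barcode read ratio; higher means stronger binding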
# Conditions: mean of both orientations
row,interaction score,Binder
1,-1.14,DKIAALEAENAALKAEIAALKAKIAALEG [4H2253-AA]

# Biological target: T4, 4H2389-AA
# Experiment: two-hybrid library CCmax;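 note: natural log of median RNA to DNA barcode read ratio; higher means stronger binding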
# Conditions: mean of both orientations
row,interaction score,Binder
1,-1.29,DKIAALEAENAALKAEIAALKAKIAALEG [4H2253-AA]

# Biological target: T5, 4H2438-AA
# Experiment: two-hybrid library CCmax;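 note: natural log of median RNA to DNA barcode read ratio; higher means stronger binding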
# Conditions: mean of both orientations
row,interaction score,Binder
1,-0.259,DKIAALEAENAALKAEIAALKAKIAALEG [4H2253-AA]

# Biological target: T6, 4H2473-AA
# Experiment: two-hybrid library CCmax;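 note: natural log of median RNA to DNA barcode read ratio; higher means stronger binding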
# Conditions: mean of both orientations
row,interaction score,Binder
1,-1.02,DKIAALEAENAALKAEIAALKAKIAALEG [4H2253-AA]

# Biological target: T7, 4H249-AA
# Experiment: two-hybrid library CCmax
# Conditions: mean of both orientations
row,interaction score,Binder
1,-1.56,DKIAALEAENAALKAEIAALKAKIAALEG [4H2253-AA]

# Biological target: T8, 4H2698-AA
# Experiment: two-hybrid library CCmax
# Conditions: mean of both orientations
row,interaction score,Binder
1,0.72,DKIAALEAENAALKAEIAALKAKIAALEG [4H2253-AA]

# Biological target: T9, 4H2774-AA
# Experiment: two-hybrid library CCmax
# Conditions: mean of both orientations
row,interaction score,Binder
1,-0.645,DKIAALEAENAALKAEIAALKAKIAALEG [4H2253-AA]

# Biological target: T10, 4H2865-AA
# Experiment: two-hybrid library CCmax
# Conditions: mean of both orientations
row,interaction score,Binder
1,-1.42,DKIAALEAENAALKAEIAALKAKIAALEG [4H2253-AA]

# Biological target: T11, 4H3009-AA
# Experiment: two-hybrid library CCmax
# Conditions: mean of both orientations
row,interaction score,Binder
1,0.841,DKIAALEAENAALKAEIAALKAKIAALEG [4H2253-AA]

# Biological target: T12, 4H310-AA
# Experiment: two-hybrid library CCmax
# Conditions: not given
row,interaction score,Binder
1,-0.688,DKIAALEAENAALKAEIAALKAKIAALEG [4H2253-AA]

# Biological target: T13, 4H3120-AA
# Experiment: two-hybrid library CCmax
# Conditions: mean of both orientations
row,interaction score,Binder
1,-1.77,DKIAALEAENAALKAEIAALKAKIAALEG [4H2253-AA]

# Biological target: T14, 4H3130-AA
# Experiment: two-hybrid library CCmax
# Conditions: mean of both orientations
row,interaction score,Binder
1,-1.14,DKIAALEAENAALKAEIAALKAKIAALEG [4H2253-AA]

# Biological target: T15, 4H3165-AA
# Experiment: two-hybrid library CCmax
# Conditions: mean of both orientations
row,interaction score,Binder
1,-1.44,DKIAALEAENAALKAEIAALKAKIAALEG [4H2253-AA]

# Biological target: T16, 4H3381-AA
# Experiment: two-hybrid library CCmax
# Conditions: mean of both orientations
row,interaction score,Binder
1,-1.4,DKIAALEAENAALKAEIAALKAKIAALEG [4H2253-AA]

# Biological target: T17, 4H3395-AA
# Experiment: two-hybrid library CCmax
# Conditions: mean of both orientations
row,interaction score,Binder
1,-1.22,DKIAALEAENAALKAEIAALKAKIAALEG [4H2253-AA]

# Biological target: T18, 4H3410-AA
# Experiment: two-hybrid library CCmax
# Conditions: mean of both orientations
row,interaction score,Binder
1,-0.76,DKIAALEAENAALKAEIAALKAKIAALEG [4H2253-AA]

# Biological target: T19, 4H3590-AA
# Experiment: two-hybrid library CCmax
# Conditions: not given
row,interaction score,Binder
1,-1.09,DKIAALEAENAALKAEIAALKAKIAALEG [4H2253-AA]

# Biological target: T20, 4H3697-AA
# Experiment: two-hybrid library CCmax
# Conditions: mean of both orientations
row,interaction score,Binder
1,-1.65,DKIAALEAENAALKAEIAALKAKIAALEG [4H2253-AA]

# Biological target: T21, 4H3753-AA
# Experiment: two-hybrid library CCmax
# Conditions: mean of both orientations
row,interaction score,Binder
1,-1.13,DKIAALEAENAALKAEIAALKAKIAALEG [4H2253-AA]

# Biological target: T22, 4H3865-AA
# Experiment: two-hybrid library CCmax
# Conditions: mean of both orientations
row,interaction score,Binder
1,-1.13,DKIAALEAENAALKAEIAALKAKIAALEG [4H2253-AA]

# Biological target: T23, 4H458-AA
# Experiment: two-hybrid library CCmax
# Conditions: mean of both orientations
row,interaction score,Binder
1,0.0604,DKIAALEAENAALKAEIAALKAKIAALEG [4H2253-AA]

# Biological target: T24, 4H485-AA
# Experiment: two-hybrid library CCmax
# Conditions: mean of both orientations
row,interaction score,Binder
1,-0.48,DKIAALEAENAALKAEIAALKAKIAALEG [4H2253-AA]

# Biological target: T25, 4H536-AA
# Experiment: two-hybrid library CCmax
# Conditions: mean of both orientations
row,interaction score,Binder
1,-1.37,DKIAALEAENAALKAEIAALKAKIAALEG [4H2253-AA]

# Biological target: T26, 4H570-AA
# Experiment: two-hybrid library CCmax
# Conditions: mean of both orientations
row,interaction score,Binder
1,-1.41,DKIAALEAENAALKAEIAALKAKIAALEG [4H2253-AA]

# Biological target: T27, 4H710-AA
# Experiment: two-hybrid library CCmax
# Conditions: mean of both orientations
row,interaction score,Binder
1,0.741,DKIAALEAENAALKAEIAALKAKIAALEG [4H2253-AA]

# Biological target: T28, 4H745-AA
# Experiment: two-hybrid library CCmax
# Conditions: mean of both orientations
row,interaction score,Binder
1,0.647,DKIAALEAENAALKAEIAALKAKIAALEG [4H2253-AA]

# Biological target: T29, 4H797-AA
# Experiment: two-hybrid library CCmax
# Conditions: mean of both orientations
row,interaction score,Binder
1,-1.07,DKIAALEAENAALKAEIAALKAKIAALEG [4H2253-AA]

# Biological target: T30, 4H850-AA
# Experiment: two-hybrid library CCmax
# Conditions: mean of both orientations
row,interaction score,Binder
1,-0.973,DKIAALEAENAALKAEIAALKAKIAALEG [4H2253-AA]

# Biological target: T31, 4H891-AA
# Experiment: two-hybrid library CCmax
# Conditions: mean of both orientations
row,interaction score,Binder
1,-1.7,DKIAALEAENAALKAEIAALKAKIAALEG [4H2253-AA]

# Biological target: T32, 4H909-AA
# Experiment: two-hybrid library CCmax
# Conditions: mean of both orientations
row,interaction score,Binder
1,-0.788,DKIAALEAENAALKAEIAALKAKIAALEG [4H2253-AA]

# Biological target: T33, 4H930-AA
# Experiment: two-hybrid library CCmax
# Conditions: mean of both orientations
row,interaction score,Binder
1,-1.04,DKIAALEAENAALKAEIAALKAKIAALEG [4H2253-AA]

# Biological target: T34, 4H94-AA
# Experiment: two-hybrid library CCmax
# Conditions: mean of both orientations
row,interaction score,Binder
1,-1.54,DKIAALEAENAALKAEIAALKAKIAALEG [4H2253-AA]

# Biological target: T35, 4H_APH
# Experiment: two-hybrid library CCmax
# Conditions: not given
row,interaction score,Binder
1,-1.1,DKIAALEAENAALKAEIAALKAKIAALEG [4H2253-AA]

# Biological target: 4H_GCN4
# Sequence (chain, as listed by the source): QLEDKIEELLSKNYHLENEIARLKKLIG
# Experiment: two-hybrid library CCmax
# Conditions: not given
row,interaction score,Binder
1,-1.12,DKIAALEAENAALKAEIAALKAKIAALEG [4H2253-AA]

# Biological target: GCN2_T
# Experiment: two-hybrid library CCmax
# Conditions: mean of both orientations
row,interaction score,Binder
1,-1.56,DKIAALEAENAALKAEIAALKAKIAALEG [4H2253-AA]
